Laboratory results as given in US20120276104A1 (F STAR BIOTECHNOLOGISCHE FORSCHUNGS UND ENTWICKLUNGSGES M B …, published 2012).

Experiments:
[1] = molecular target: T1, recombinant soluble HER-2 protein (human, UniProt P04626 23-652, limits assumed); assay: SPR (Biacore), soluble HER-2 coated on CM-5 chip, Fcab injected at 0.8-25 ug/ml, 1:1 model; SPR, recombinant soluble HER-2 on the chip
T1 construct: Described only as 'recombinant soluble HER-2 protein'; also called recombinant HER-2
Procedure: (§1) CM-5 chips are coated with increasing concentrations of recombinant soluble HER-2 protein. […] Then, buffer is injected to measure the off-rate of the binding reaction. The binding affinity (KD) is calculated using the BiaEval software using a 1:1 stochiometry model. […] Unbound Fcab is removed by two washing steps in FACS buffer. Cell bound Fcab is detected by incubation of the cells with polyclonal anti-human IgG antibodies coupled to phycoerythrin (SIGMA) for 30 minutes on ice as recommended by the manufacturer. Again, unbound detection antibodies are removed by two washing steps as above. Fcab binding is enumerated by flow cytometry by plotting the mean fluorescence intensity against the Fcab concentrations (FIG. 1, left panel).

[2] = molecular target: T2, HER-2 expressed on human tumor cells (human, UniProt P04626 23-1255); assay: flow cytometry on SKBR3 cells, detection with anti-human IgG-phycoerythrin, MFI against Fcab concentration; flow cytometry, HER-2 on SKBR3 cells
T2 construct: whole, on cells; also called Her-2/neu; HER-2 on SKBR3, BT474 and HCC1954 cells
Procedure: as §1

B1: Fcab H561-4 (other)
chain: TCPPCPAPELLGGPSVFLFPPKPKDTLMISRTPEVTCVVVDVSHEDPEVKFNWYVDGVEVHNAKTKPREEQYNSTYRVVSVLTVLHQDWLNGKEYKCKVSNKALPAPIEKTISKAKGQPREPQVYTLPPSRDEFFTYWVSLTCLVKGFYPSDIAVEWESNGQPENNYKTTPPVLDSDGSFFLYSKLTVDRRRWTAGNVFSCSVMHEALHNHYTQKSLSLSPGK
notes: also called Her-2 specific Fcab clone H561-4
[1]
  Kd: 7.5 nM
[2]
  EC50: 2 nM
